The values that follow come from article PMC3608532, “Characterization of a Single-Chain Variable Fragment Recognizing a Linear Epitope of Aβ: A Biotechnical Tool for Studies on Alzheimer’s Disease?” (PLoS ONE, 2013).

Holding throughout (experiment): SPR; Biacore X; Aβ peptides coupled via the C-terminal cysteine to a CM5 chip; IC16 injected (10 to 1000 nM), 20 µl/min, PBS, 25°C; global fit, bivalent binding model
Common to all, as to conditions: both partners purified
In general terms: Surface plasmon resonance follows binding to a sensor surface in real time, without labels.

Assay [1] addresses T1, Aβ(2-8)-GSGSC (human).
T1 construct: amyloid-β peptide (Aβ), cut from the amyloid precursor protein (APP), human, residues 2-8; C-terminal spacer with the cysteine by which the peptide was coupled to the chip; source: synthetic peptide, bought: JPT
T1 chain: AEFRHDSGSGSC

The target of assay [2] is T2, Aβ(3-8)-GSGSC (human).
T2 construct: amyloid-β peptide (Aβ), cut from the amyloid precursor protein (APP), human, residues 3-8; C-terminal spacer with the cysteine by which the peptide was coupled to the chip; source: synthetic peptide, bought: JPT
T2 chain: EFRHDSGSGSC

The target of assay [3] is T3, Aβ(1-8)-GSGSC (human).
T3 construct: amyloid-β peptide (Aβ), cut from the amyloid precursor protein (APP), human, residues 1-8; C-terminal spacer with the cysteine by which the peptide was coupled to the chip; source: synthetic peptide, bought: JPT
T3 chain: DAEFRHDSGSGSC

B1: monoclonal IgG2a antibody IC16 (antibody, V domains shown)
VH: QVTLKESGPGILQPSQTLSLTCSFSGFSLSTSGMGVSWIRQPSGKGLEWLAHIFWDDDKNYNPSLKSRLTVSKDTSRNQVFLKITSVDTSDTATYYCARSPHLRGYDVDFDYWGQGTTLTVSS
VL: DVLMTQTPLSLPVSLGDQASISCRSSQSLVHSNGNTYLHWYLQKPGQSPKVLIYKVSNRFSGVPDRFSGSGSGTDFTLKISRVEAEDLGVYFCSQSTHVPLTFGAGTKLELK
notes: IgG2a; raised in a PrP knockout mouse against KLH Aβ(1-16); also called monoclonal parent antibody IC16; source: IC16 hybridoma (mouse); copies: 2 + 2
In assay [1], B1 gave a Kd of 32 nM, a koff of 0.00154 s⁻¹ and a kon of 48500 M⁻¹ s⁻¹. In assay [2], this molecule gave a Kd of 82 nM, a koff of 0.00343 s⁻¹ and a kon of 41700 M⁻¹ s⁻¹. In assay [3], the Kd was found to be 51 nM, the koff turned out to be 0.0018 s⁻¹ and the kon came out at 35000 M⁻¹ s⁻¹.

For orientation: koff means a measure of how fast the partners let go of each other. Lower therefore signals a long-lived complex. Usually kon stands for a measure of how fast the partners come together. The low end stands for slow association, the high end for fast association.
